# Measurements: IntAct's records for PubMed 30283133
# B1: D-alanyl carrier protein (Streptococcus thermophilus (strain ATCC BAA-250 / LMG 18311)), Q5M4V3 (parent)
# chain: MDVKAEVIEIIDELFMEDVSDMMDEDLFDAGVLDSMGTVELIVELESRFDIRVPVSEFGRDDWNTANKIVEGVTELRNA
# partner: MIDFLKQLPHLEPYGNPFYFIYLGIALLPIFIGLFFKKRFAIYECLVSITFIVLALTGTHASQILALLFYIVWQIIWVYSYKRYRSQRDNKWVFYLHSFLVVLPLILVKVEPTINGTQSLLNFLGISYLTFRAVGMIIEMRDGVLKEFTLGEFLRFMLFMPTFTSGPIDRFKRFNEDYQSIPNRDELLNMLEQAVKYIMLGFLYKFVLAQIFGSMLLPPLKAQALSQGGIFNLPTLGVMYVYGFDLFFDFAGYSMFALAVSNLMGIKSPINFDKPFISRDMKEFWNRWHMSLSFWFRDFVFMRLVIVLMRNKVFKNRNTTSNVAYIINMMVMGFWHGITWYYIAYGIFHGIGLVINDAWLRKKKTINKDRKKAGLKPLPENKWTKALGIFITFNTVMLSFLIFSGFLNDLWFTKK
# B2: Teichoic acid D-alanyltransferase (Streptococcus thermophilus (strain ATCC BAA-250 / LMG 18311)), Q5M4V4 (parent)
# chain: B1 partner
# partner: B1 chain
# Variants of: B1
# Conditions: with dltb_strt2 dltB
row,Variant,effect of a mutation on the interaction
1,V39D,decreasing interaction
2,V39R,decreasing interaction

# Variants of: B1
# Conditions: with dltb_strt2 dltB, Q5M4V4
row,Variant,effect of a mutation on the interaction
1,V39D,decreasing interaction strength
2,S35A,decreasing interaction

# Variants of: B2
# Conditions: with dltc_strt2 dltC
row,Variant,effect of a mutation on the interaction
1,V305D,decreasing interaction
2,V305D;I306D,disrupting interaction

# Variants of: B2
# Conditions: with dltc_strt2 dltC, Q5M4V3
row,Variant,effect of a mutation on the interaction
1,V305R,decreasing interaction strength
2,V305D;I306D,disrupting interaction strength
